In article PMC6173970:

Target: F-actin (actin purified from chicken breast, polymerized and phalloidin-stabilized) (chicken) (UniProt P68139)
Experiment: co-sedimentation

Row | Substance | stoichiometry N
1 | 6xHis-FLNaABD-A128V (from UniProt P21333 1-278) (domain or fragment) | 1
2 | 6xHis-FLNaABD-E254K (domain or fragment) | 1
3 | 6xHis-FLNaABD-Q170P (from UniProt P21333 1-278) (domain or fragment) | 1
4 | 6xHis-FLNaABD-wt (human filamin A actin-binding domain, wild type) (from UniProt P21333 1-278) (domain or fragment) | 1
